Experiment [1] has as its target type 2α regulatory subunit of PKA (RIIα), full length (rat, UniProt P12368 1-401). In words: fluorescence polarisation. (In general: Polarisation of emitted light reports the rotation of a fluorescent probe.)
The target of experiment [2] is type 2β regulatory subunit of PKA (RIIβ), full length (rat, UniProt P12369 1-416). Kind of experiment: fluorescence polarisation.

What is called Kd is a measure of binding affinity in units of concentration. High values mean a looser complex, low ones a tighter complex.

Sequence of type 2α regulatory subunit of PKA (RIIα), full length (P12368 whole entry): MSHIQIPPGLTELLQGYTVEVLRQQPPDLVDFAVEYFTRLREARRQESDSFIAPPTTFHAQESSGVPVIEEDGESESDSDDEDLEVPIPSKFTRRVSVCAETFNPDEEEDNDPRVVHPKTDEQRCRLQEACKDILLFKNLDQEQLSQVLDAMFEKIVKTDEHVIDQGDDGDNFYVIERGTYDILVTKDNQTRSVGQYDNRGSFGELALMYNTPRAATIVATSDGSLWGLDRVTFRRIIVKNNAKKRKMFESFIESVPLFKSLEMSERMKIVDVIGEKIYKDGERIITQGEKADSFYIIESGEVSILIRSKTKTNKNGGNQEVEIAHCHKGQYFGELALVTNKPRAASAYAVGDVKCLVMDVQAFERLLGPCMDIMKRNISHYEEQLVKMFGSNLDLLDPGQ
Sequence of type 2β regulatory subunit of PKA (RIIβ), full length (P12369 whole entry): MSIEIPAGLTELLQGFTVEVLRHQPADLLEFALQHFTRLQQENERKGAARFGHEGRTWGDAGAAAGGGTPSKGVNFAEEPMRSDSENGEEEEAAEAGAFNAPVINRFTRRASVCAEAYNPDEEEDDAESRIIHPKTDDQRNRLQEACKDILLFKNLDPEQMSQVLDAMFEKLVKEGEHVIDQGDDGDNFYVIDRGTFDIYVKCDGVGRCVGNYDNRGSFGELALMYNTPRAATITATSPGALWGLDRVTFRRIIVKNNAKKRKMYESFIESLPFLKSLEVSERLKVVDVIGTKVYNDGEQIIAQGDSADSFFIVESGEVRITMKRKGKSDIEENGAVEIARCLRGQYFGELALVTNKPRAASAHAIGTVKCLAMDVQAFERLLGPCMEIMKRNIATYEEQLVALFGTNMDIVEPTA

B1: S100A1 (natural protein)
chain: GSELETAMETLINVFHAHSGKEGDKYKLSKKELKELLQTELSGFLDAQKDVDAVDKVMKELDENGDGEVDFQEYVVLVAALTVACNNFFWENS
For B1, the Kd was 990 nM in experiment [1] and 2160 nM in experiment [2].

Source of the values: publication PMC5415871 (Biochemistry, 2017).
